From article doi:10.1101/2024.05.08.592654

Target: GFP-PNUTS^W726A-HA (non-PP1 binding mutant) (Drosophila)
Assay: affinity purification with mass spectrometry

For “PP1-87B (from UniProt P12982 1-302) (enzyme)”, the fold more abundant with PNUTS^WT than with PNUTS^W726A was 12 fold.
